Experimental findings from patent US20250361312A1 are described below.

pEC50: −log10 of the molar value. Read-outs that look alike come from different tables or passages of the source.

For assay [1], the target named is cynomolgus OX40 receptor, cell-expressed (DO11.10-cOX40) (cynomolgus). Put plainly: flow cytometry on DO11.10-cOX40 cells. In general terms: Flow cytometry measures light scatter and fluorescence of single cells or particles in a stream.
Assay [2] deals with human OX40 receptor, cell-expressed (DO11.10-hOX40) (human) (UniProt P43489). Put plainly: flow cytometry on DO11.10-hOX40 cells.
human OX40 receptor, cell-expressed (DO11.10-hOX40) (human), sequence (P43489 29-277): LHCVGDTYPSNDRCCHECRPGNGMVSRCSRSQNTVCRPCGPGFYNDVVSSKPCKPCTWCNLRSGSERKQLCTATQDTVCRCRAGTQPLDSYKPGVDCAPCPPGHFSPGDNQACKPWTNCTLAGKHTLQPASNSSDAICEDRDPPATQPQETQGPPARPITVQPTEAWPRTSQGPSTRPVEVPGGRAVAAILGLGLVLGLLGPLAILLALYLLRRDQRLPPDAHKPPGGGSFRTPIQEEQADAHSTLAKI
The target is the same in assay [3]. Description: cell-based or functional assay.
Assay [4] shares this target. Description: cell-based or functional assay. This is another data set of the same source.
For assay [5] the target is unchanged. Description: cell-based or functional assay. The source holds these as a separate data set.
Assay [6] shares this target. Put plainly: cell-based or functional assay. This is another data set of the same source.

cynomolgus OX40 receptor, cell-expressed (DO11.10-cOX40) (cynomolgus), sequence (P43489 other isoform, or with tags, fused parts or gaps): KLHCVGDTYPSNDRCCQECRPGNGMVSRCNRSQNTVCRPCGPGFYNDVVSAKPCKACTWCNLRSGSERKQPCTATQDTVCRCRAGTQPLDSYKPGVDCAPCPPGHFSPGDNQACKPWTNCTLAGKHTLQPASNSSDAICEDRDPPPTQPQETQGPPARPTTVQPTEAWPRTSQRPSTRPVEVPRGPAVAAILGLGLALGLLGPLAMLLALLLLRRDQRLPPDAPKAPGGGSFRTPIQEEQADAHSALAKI

In general, pEC50 refers to the negative decadic logarithm of the EC50, by convention in mol/L. Read a low pEC50 as a high EC50. In assay [1], G1AA/11D4 (antibody) gave a negative logarithm of the EC50 (pEC50) of 9.67. The same substance gave a pEC50 in assay [2] of 9.09. In assay [3], this substance yielded an EC50 of IL-2 release, crosslinked (anti-human CH2 mAb) of 0.0493 nM and a Max response, crosslinked of 26700 hIL-2 pg/ml.

G1/11D4 (antibody): the EC50 of IL-2 release, Xlink (anti-hCH2) amounted to 0.000153 nM in assay [4], 0.196 nM in assay [5], 0.199 nM in assay [3] and 0.14 nM in assay [6]. Moreover, the Max response, Xlink (anti-hCH2) in assay [4] turned out to be 25000 mIL-2 pg/ml; in assay [5], 7200 mIL-2 pg/ml; in assay [3], 21900 mIL-2 pg/ml; in assay [6], 24500 mIL-2 pg/ml. The substance also gave an EC50 of IL-2 release, HPAC cells present, Xlink (anti-hCH2) in assay [3] of 0.228 nM. In assay [3], the Max response, HPAC cells present, Xlink (anti-hCH2) came out at 14800 mIL-2 pg/ml.
